Target: T1, His-tag IpaB (Shigella flexneri 2457T IpaB with N-terminal His-tag, expressed from pET15b) (Shigella flexneri 2457T, UniProt P18011 1-580)
T1 construct: not shown: N-terminal His-tag from vector pET15b
T1 sequence: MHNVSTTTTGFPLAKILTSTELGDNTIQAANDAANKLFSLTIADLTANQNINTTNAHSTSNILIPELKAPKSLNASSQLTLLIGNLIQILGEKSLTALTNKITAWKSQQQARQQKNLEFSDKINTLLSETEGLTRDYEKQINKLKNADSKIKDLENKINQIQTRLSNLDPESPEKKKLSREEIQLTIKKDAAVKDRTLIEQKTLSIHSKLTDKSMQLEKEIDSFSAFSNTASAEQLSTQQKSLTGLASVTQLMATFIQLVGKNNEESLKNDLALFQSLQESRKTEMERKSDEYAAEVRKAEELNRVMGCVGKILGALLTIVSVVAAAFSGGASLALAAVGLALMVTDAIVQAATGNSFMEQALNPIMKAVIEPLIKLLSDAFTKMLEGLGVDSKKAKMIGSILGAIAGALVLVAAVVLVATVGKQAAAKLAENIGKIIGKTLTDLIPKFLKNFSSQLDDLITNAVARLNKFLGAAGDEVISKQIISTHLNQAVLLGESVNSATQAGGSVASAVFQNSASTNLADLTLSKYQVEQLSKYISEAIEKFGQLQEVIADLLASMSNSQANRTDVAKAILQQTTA
Assay: co-expression and co-purification

B1: IpgC (cognate chaperone of IpaB, untagged, expressed from pACYCDuet-1) (other)
chain: MSLNITENESISTAVIDAINSGATLKDINAIPDDMMDDIYSYAYDFYNKGRIEEAEVFFRFLCIYDFYNVDYIMGLAAIYQIKEQFQQAADLYAVAFALGKNDYTPVFHTGQCQLRLKAPLKAKECFELVIQHSNDEKLKIKAQSYLDAIQDIKE
- binding result: binds

From patent US20130149329A1 (BOARD OF REGENTS FOR OKLAHOMA STATE UNIVERSITY, published 2013)
